Data taken from PMC12645917.

Legend:
[1] = biological target: PEDV S-Trimer (trimerized PEDV spike protein, 2P-stabilised, residues 1-1,319 with C-terminal GCN4 trimerization motif) (porcine epidemic diarrhea virus (PEDV)); test: SEC; purified protein on Superose 6 increase 10/300 GL, 20 mM HEPES pH 7.6, 150 mM NaCl; single peak compared with the 669 kDa standard
[2] = biological target: TGEV S-Trimer (trimerized TGEV spike protein, 2P-stabilised, residues 1-1,388 with C-terminal GCN4 trimerization motif) (transmissible gastroenteritis virus (TGEV)); test: as above

Substance | stoichiometry N [1] | stoichiometry N [2]
PEDV S-Trimer (trimerized PEDV spike protein, 2P-stabilised, residues 1-1,319 with C-terminal GCN4 trimerization motif) (natural protein) | 3 | –
TGEV S-Trimer (trimerized TGEV spike protein, 2P-stabilised, residues 1-1,388 with C-terminal GCN4 trimerization motif) (natural protein) | – | 3
